Data published in the supplement of paper PMC6757056.
± gives the standard deviation of the averaged measurements.

B1: library; a variant is named by its letters at N, in order (parent)
chain: GCUGUCACCGGUGUAUUACCCUAGUGGUCGACCGGUCUGAUGAGUCUNNNNNNAGACGAAACAGC

Assays:
hypoxanthine [1] = variants of: B1; assay: normalized RNA/DNA level with ligand (relative to sTRSVctl = 100) (log10 (% of sTRSVctl)); ligand: hypoxanthine (xanthine aptamer); higher = less ribozyme self-cleavage, higher mRNA level; settings: ligand concentration (+) RNA-Seq: 5 mM, HEK293T, reporter: mCherry (pCS4076), ligand present: yes
Outline: (§1)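 Ribozyme switch library plasmids linked to reporters were introduced into HEK293T cells at 4 µg per 6-well well, with ligand, if any, added 1 h before. Total RNA was extracted with EDTA 72 h later, reverse-transcribed, amplified, barcoded and sequenced. RNA level was computed from RNA over DNA reads relative to a spiked-in non-cleaving sequence or the top sequences, then scaled and log-transformed. The top set was 25 sequences, values were ×100 and log10, and the cutoff was ≥100 DNA reads.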

hypoxanthine [2] = variants of: B1; assay: normalized RNA/DNA level without ligand (relative to sTRSVctl = 100) (log10 (% of sTRSVctl)); ligand: hypoxanthine (xanthine aptamer); higher = less ribozyme self-cleavage, higher mRNA level; settings: HEK293T, reporter: mCherry (pCS4076), ligand present: no
Outline: as §1

Variant | normalized RNA/DNA level with ligand (log10) (hypoxanthine [1]) | normalized RNA/DNA level without ligand (log10) (hypoxanthine [2])
UCAGAA | 1.9 ± 0.044 | 1.665 ± 0.0042
CCAGAC | 1.954 ± 0.0047 | 1.877 ± 0.011
GCAGAC | 1.89 ± 0.021 | 1.549 ± 0.0076
ACAGAC | 1.92 ± 0.078 | 1.838 ± 0.0042
UCAGAC | 1.964 ± 0.0055 | 1.92 ± 0.042
UCAGAG | 1.9 ± 0.046 | 1.58 ± 0.066
CCAGAU | 1.9387 ± 0.00089 | 1.8 ± 0.057
UCAGAU | 1.96 ± 0.037 | 1.76 ± 0.066
CCAGCA | 1.966 ± 0.019 | 1.87 ± 0.043
ACAGCA | 1.94 ± 0.032 | 1.81 ± 0.028
UCAGCA | 1.99 ± 0.021 | 1.88 ± 0.03
ACAGCC | 1.97 ± 0.021 | 1.919 ± 0.01
UCAGCC | 2.04 ± 0.02 | 1.997 ± 0.0026
CCAGCG | 1.917 ± 0.0021 | 1.82 ± 0.038
GCAGCG | 1.97 ± 0.028 | 1.62 ± 0.042
CCAGCU | 1.99 ± 0.097 | 1.94 ± 0.045
GCAGCU | 2.014 ± 0.019 | 1.95 ± 0.038
ACAGCU | 1.92 ± 0.027 | 1.87 ± 0.033
UCAGCU | 1.99 ± 0.03 | 1.948 ± 0.014
CCAGGA | 1.97 ± 0.033 | 1.83 ± 0.022
CCAGGC | 1.97 ± 0.041 | 1.86 ± 0.061
GCAGGC | 1.861 ± 0.0028 | 1.65 ± 0.036
ACAGGC | 1.89 ± 0.1 | 1.72 ± 0.038

Variant | normalized RNA/DNA level with ligand (log10) (hypoxanthine [1]) | normalized RNA/DNA level without ligand (log10) (hypoxanthine [2])
UCAGGC | 1.96 ± 0.073 | 1.96 ± 0.03
CCAGGG | 1.89 ± 0.11 | 1.37 ± 0.044
CCAGGU | 1.99 ± 0.067 | 1.833 ± 0.0077
GCAGGU | 1.93 ± 0.031 | 1.73 ± 0.056
UCAGGU | 1.87 ± 0.052 | 1.654 ± 0.0062
CCAGUA | 1.94 ± 0.054 | 1.85 ± 0.038
GCAGUA | 1.948 ± 0.012 | 1.772 ± 0.0069
ACAGUA | 1.908 ± 0.015 | 1.76 ± 0.029
CCAGUC | 1.99 ± 0.038 | 1.974 ± 0.0045
UCAGUC | 1.96 ± 0.056 | 1.9668 ± 0.0014
CCAGUG | 1.93 ± 0.051 | 1.69 ± 0.077
ACAGUG | 1.85 ± 0.039 | 1.35 ± 0.021
UCAGUG | 1.93 ± 0.061 | 1.77 ± 0.067
CCAGUU | 2.01 ± 0.029 | 1.928 ± 0.0095
GCAGUU | 1.9707 ± 0.00023 | 1.855 ± 0.015
CCAUAA | 1.914 ± 0.01 | 1.8 ± 0.031
GCAUAC | 1.904 ± 0.014 | 1.62 ± 0.049
ACAUAC | 1.94 ± 0.034 | 1.823 ± 0.015
CCAUAG | 1.894 ± 0.013 | 1.55 ± 0.06
GCAUAG | 1.862 ± 0.011 | 1.43 ± 0.078
ACAUAU | 1.89 ± 0.072 | 1.6935 ± 0.0011
UCAUAU | 1.88 ± 0.029 | 1.77 ± 0.041
CCAUCA | 1.97 ± 0.056 | 2.01 ± 0.049

Variant | normalized RNA/DNA level with ligand (log10) (hypoxanthine [1]) | normalized RNA/DNA level without ligand (log10) (hypoxanthine [2])
GCAUCA | 1.94 ± 0.041 | 1.89 ± 0.035
ACAUCA | 1.96 ± 0.046 | 1.91 ± 0.029
CCAUCC | 2 ± 0.087 | 1.975 ± 0.015
GCAUCC | 1.86 ± 0.069 | 1.82 ± 0.025
ACAUCC | 1.98 ± 0.049 | 1.931 ± 0.0044
UCAUCC | 2.032 ± 0.0044 | 2 ± 0.049
CCAUCG | 1.91 ± 0.024 | 1.79 ± 0.019
UCAUCG | 1.99 ± 0.049 | 1.83 ± 0.058
CCAUCU | 2.036 ± 0.0026 | 1.951 ± 0.015
GCAUCU | 1.98 ± 0.039 | 1.87 ± 0.004
ACAUCU | 1.97 ± 0.024 | 1.87 ± 0.073
UCAUCU | 2.026 ± 0.011 | 1.99 ± 0.059
GCAUGA | 1.94 ± 0.042 | 1.71 ± 0.029
CCAUGC | 1.95 ± 0.051 | 1.88 ± 0.069
ACAUGC | 1.914 ± 0.015 | 1.77 ± 0.024
UCAUGC | 1.95 ± 0.0044 | 1.882 ± 0.014
UCAUGG | 1.9 ± 0.034 | 1.69 ± 0.049
CCAUGU | 1.913 ± 0.013 | 1.828 ± 0.016
GCAUGU | 1.9 ± 0.03 | 1.68 ± 0.043
UCAUGU | 1.92 ± 0.038 | 1.628 ± 0.0081
CCAUUA | 1.929 ± 0.017 | 1.84 ± 0.039
GCAUUA | 1.92 ± 0.023 | 1.877 ± 0.01
ACAUUA | 1.926 ± 0.0045 | 1.85 ± 0.036

Variant | normalized RNA/DNA level with ligand (log10) (hypoxanthine [1]) | normalized RNA/DNA level without ligand (log10) (hypoxanthine [2])
UCAUUA | 1.927 ± 0.0081 | 1.884 ± 0.0033
GCAUUC | 2 ± 0.023 | 1.81 ± 0.047
UCAUUC | 2.0015 ± 0.00059 | 1.9887 ± 0.00019
CCAUUG | 1.9 ± 0.056 | 1.8 ± 0.022
ACAUUG | 1.91 ± 0.057 | 1.53 ± 0.043
UCAUUG | 1.91 ± 0.026 | 1.72 ± 0.043
CCAUUU | 1.91 ± 0.021 | 1.86 ± 0.066
GCAUUU | 1.922 ± 0.019 | 1.88 ± 0.042
ACAUUU | 1.9 ± 0.04 | 1.796 ± 0.01
CCCAAC | 1.96 ± 0.072 | 1.87 ± 0.023
GCCAAC | 1.927 ± 0.014 | 1.74 ± 0.039
UCCAAC | 2 ± 0.021 | 1.9 ± 0.033
ACCAAG | 1.89 ± 0.088 | 1.5 ± 0.098
CCCAAU | 1.93 ± 0.026 | 1.83 ± 0.04
GCCAAU | 1.95 ± 0.053 | 1.798 ± 0.0018
UCCAAU | 1.94 ± 0.021 | 1.79 ± 0.018
GCCACA | 1.958 ± 0.0033 | 1.871 ± 0.0054
ACCACA | 1.94 ± 0.044 | 1.902 ± 0.0069
UCCACA | 1.96 ± 0.037 | 1.835 ± 0.0089
CCCACC | 2.01 ± 0.063 | 1.96 ± 0.032
GCCACC | 1.905 ± 0.011 | 1.834 ± 0.0019
ACCACC | 2.012 ± 0.02 | 1.927 ± 0.0086
UCCACC | 2.02 ± 0.029 | 1.931 ± 0.018

Variant | normalized RNA/DNA level with ligand (log10) (hypoxanthine [1]) | normalized RNA/DNA level without ligand (log10) (hypoxanthine [2])
CCCACG | 1.917 ± 0.019 | 1.83 ± 0.029
GCCACG | 1.905 ± 0.0023 | 1.656 ± 0.0069
ACCACG | 1.91 ± 0.032 | 1.67 ± 0.023
CCCACU | 1.96 ± 0.037 | 1.87 ± 0.022
GCCACU | 1.99 ± 0.065 | 1.965 ± 0.0028
ACCACU | 1.96 ± 0.023 | 1.92 ± 0.048
UCCACU | 1.957 ± 0.0089 | 1.99 ± 0.07
CCCAGA | 1.93 ± 0.048 | 1.83 ± 0.046
GCCAGA | 1.909 ± 0.0037 | 1.72 ± 0.056
ACCAGA | 1.952 ± 0.009 | 1.77 ± 0.024
UCCAGA | 1.93 ± 0.054 | 1.78 ± 0.048
CCCAGC | 1.999 ± 0.0073 | 1.877 ± 0.013
GCCAGC | 1.97 ± 0.047 | 1.81 ± 0.055
ACCAGC | 1.993 ± 0.0011 | 1.94 ± 0.043
UCCAGC | 2.03 ± 0.048 | 1.9 ± 0.082
CCCAGG | 1.934 ± 0.018 | 1.83 ± 0.019
GCCAGG | 1.872 ± 0.0046 | 1.43 ± 0.1
ACCAGG | 1.832 ± 0.015 | 1.44 ± 0.064
UCCAGG | 1.9095 ± 0.00051 | 1.8002 ± 0.0018
CCCAGU | 1.934 ± 0.0021 | 1.89 ± 0.032
GCCAGU | 1.92 ± 0.06 | 1.79 ± 0.046
CCCAUA | 1.9 ± 0.06 | 1.89 ± 0.11
UCCAUA | 1.899 ± 0.018 | 1.88 ± 0.024
